# Source: patent publication US20240109972A1, “ANTIBODY AND TAXANE COMBINATION THERAPY” (Genmab A/S, priority 2020, published 2024)
# Experiment: GEN1046 in combination with docetaxel in metastatic NSCLC subjects, adverse effects
# Assay type: in vivo, human
# Method: Docetaxel was administered at a dose of 55 mg/m^2 or 75 mg/m^2 depending on the number of prior Dose Limiting Toxicities observed. The maximum tested dose of docetaxel was be 75 mg/m^2.
# Subjects with a histological or cytological diagnosis of non-squamous NSCLC must not have an EGFR-sensitizing mutation and/or ALK translocation/ROS1 rearrangement. EGFR sensitizing mutations are those mutations that are amenable to treatment with an approved TKI. Documentation of EGFR and ALK status should be available per local assessment.
# [1] = GEN1046 in combination with Docetaxel
substance,measurement,setting,value
"GEN1046: PD-L1×4-1BB bispecific antibody: PD-L1-547-FEAL combined with CD137-009-HC7LC2-FEAR (SEQ ID NOs: 1, 5, 21, 19; 8, 12, 22, 20)","Anemia Grade 5, GEN1046-related",GEN1046 + 75 mg/m^2 Docetaxel,0
same,"Blood thyroid stimulating hormone abnormal Grade 1, GEN1046-related",GEN1046 + 75 mg/m^2 Docetaxel,1
same,"Blood thyroid stimulating hormone abnormal Grade 2, GEN1046-related",GEN1046 + 75 mg/m^2 Docetaxel,0
same,"Blood thyroid stimulating hormone abnormal Grade 3, GEN1046-related",GEN1046 + 75 mg/m^2 Docetaxel,0
same,"Blood thyroid stimulating hormone abnormal Grade 4, GEN1046-related",GEN1046 + 75 mg/m^2 Docetaxel,0
same,"Blood thyroid stimulating hormone abnormal Grade 5, GEN1046-related",GEN1046 + 75 mg/m^2 Docetaxel,0
same,"Cough Grade 1, GEN1046-related",GEN1046 + 75 mg/m^2 Docetaxel,1
same,"Cough Grade 2, GEN1046-related",GEN1046 + 75 mg/m^2 Docetaxel,0
same,"Cough Grade 3, GEN1046-related",GEN1046 + 75 mg/m^2 Docetaxel,0
same,"Cough Grade 4, GEN1046-related",GEN1046 + 75 mg/m^2 Docetaxel,0
same,"Cough Grade 5, GEN1046-related",GEN1046 + 75 mg/m^2 Docetaxel,0
same,"Dry mouth Grade 1, GEN1046-related",GEN1046 + 75 mg/m^2 Docetaxel,1
same,"Dry mouth Grade 2, GEN1046-related",GEN1046 + 75 mg/m^2 Docetaxel,0
same,"Dry mouth Grade 3, GEN1046-related",GEN1046 + 75 mg/m^2 Docetaxel,0
same,"Dry mouth Grade 4, GEN1046-related",GEN1046 + 75 mg/m^2 Docetaxel,0
same,"Dry mouth Grade 5, GEN1046-related",GEN1046 + 75 mg/m^2 Docetaxel,0
same,"Dyspnea Grade 1, GEN1046-related",GEN1046 + 75 mg/m^2 Docetaxel,1
same,"Dyspnea Grade 2, GEN1046-related",GEN1046 + 75 mg/m^2 Docetaxel,2
same,"Dyspnea Grade 3, GEN1046-related",GEN1046 + 75 mg/m^2 Docetaxel,0
same,"Dyspnea Grade 4, GEN1046-related",GEN1046 + 75 mg/m^2 Docetaxel,0
same,"Dyspnea Grade 5, GEN1046-related",GEN1046 + 75 mg/m^2 Docetaxel,0
same,"Fatigue Grade 1, GEN1046-related",GEN1046 + 75 mg/m^2 Docetaxel,1
same,"Fatigue Grade 2, GEN1046-related",GEN1046 + 75 mg/m^2 Docetaxel,2
same,"Fatigue Grade 3, GEN1046-related",GEN1046 + 75 mg/m^2 Docetaxel,0
same,"Fatigue Grade 4, GEN1046-related",GEN1046 + 75 mg/m^2 Docetaxel,0
same,"Fatigue Grade 5, GEN1046-related",GEN1046 + 75 mg/m^2 Docetaxel,0
same,"Gastroesophageal reflux disease Grade 1, GEN1046-related",GEN1046 + 75 mg/m^2 Docetaxel,1
same,"Gastroesophageal reflux disease Grade 2, GEN1046-related",GEN1046 + 75 mg/m^2 Docetaxel,0
same,"Gastroesophageal reflux disease Grade 3, GEN1046-related",GEN1046 + 75 mg/m^2 Docetaxel,0
same,"Gastroesophageal reflux disease Grade 4, GEN1046-related",GEN1046 + 75 mg/m^2 Docetaxel,0
same,"Gastroesophageal reflux disease Grade 5, GEN1046-related",GEN1046 + 75 mg/m^2 Docetaxel,0
same,"Hiccups Grade 1, GEN1046-related",GEN1046 + 75 mg/m^2 Docetaxel,0
same,"Hiccups Grade 2, GEN1046-related",GEN1046 + 75 mg/m^2 Docetaxel,1
same,"Hiccups Grade 3, GEN1046-related",GEN1046 + 75 mg/m^2 Docetaxel,0
same,"Hiccups Grade 4, GEN1046-related",GEN1046 + 75 mg/m^2 Docetaxel,0
same,"Hiccups Grade 5, GEN1046-related",GEN1046 + 75 mg/m^2 Docetaxel,0
same,"Hyperglycemia Grade 1, GEN1046-related",GEN1046 + 75 mg/m^2 Docetaxel,1
same,"Hyperglycemia Grade 2, GEN1046-related",GEN1046 + 75 mg/m^2 Docetaxel,0
same,"Hyperglycemia Grade 3, GEN1046-related",GEN1046 + 75 mg/m^2 Docetaxel,1
same,"Hyperglycemia Grade 4, GEN1046-related",GEN1046 + 75 mg/m^2 Docetaxel,0
same,"Hyperglycemia Grade 5, GEN1046-related",GEN1046 + 75 mg/m^2 Docetaxel,0
same,"Lipase increased Grade 1, GEN1046-related",GEN1046 + 75 mg/m^2 Docetaxel,0
same,"Lipase increased Grade 2, GEN1046-related",GEN1046 + 75 mg/m^2 Docetaxel,1
same,"Lipase increased Grade 3, GEN1046-related",GEN1046 + 75 mg/m^2 Docetaxel,0
same,"Lipase increased Grade 4, GEN1046-related",GEN1046 + 75 mg/m^2 Docetaxel,0
same,"Lipase increased Grade 5, GEN1046-related",GEN1046 + 75 mg/m^2 Docetaxel,0
same,"Musculoskeletal chest pain Grade 1, GEN1046-related",GEN1046 + 75 mg/m^2 Docetaxel,0
same,"Musculoskeletal chest pain Grade 2, GEN1046-related",GEN1046 + 75 mg/m^2 Docetaxel,1
same,"Musculoskeletal chest pain Grade 3, GEN1046-related",GEN1046 + 75 mg/m^2 Docetaxel,0
same,"Musculoskeletal chest pain Grade 4, GEN1046-related",GEN1046 + 75 mg/m^2 Docetaxel,0
same,"Musculoskeletal chest pain Grade 5, GEN1046-related",GEN1046 + 75 mg/m^2 Docetaxel,0
same,"Nausea Grade 1, GEN1046-related",GEN1046 + 75 mg/m^2 Docetaxel,0
same,"Nausea Grade 2, GEN1046-related",GEN1046 + 75 mg/m^2 Docetaxel,1
same,"Nausea Grade 3, GEN1046-related",GEN1046 + 75 mg/m^2 Docetaxel,0
same,"Nausea Grade 4, GEN1046-related",GEN1046 + 75 mg/m^2 Docetaxel,0
same,"Nausea Grade 5, GEN1046-related",GEN1046 + 75 mg/m^2 Docetaxel,0
same,"Neutrophil count decreased Grade 1, GEN1046-related",GEN1046 + 75 mg/m^2 Docetaxel,0
same,"Neutrophil count decreased Grade 2, GEN1046-related",GEN1046 + 75 mg/m^2 Docetaxel,0
same,"Neutrophil count decreased Grade 3, GEN1046-related",GEN1046 + 75 mg/m^2 Docetaxel,0
same,"Neutrophil count decreased Grade 4, GEN1046-related",GEN1046 + 75 mg/m^2 Docetaxel,1
same,"Neutrophil count decreased Grade 5, GEN1046-related",GEN1046 + 75 mg/m^2 Docetaxel,0
same,"Palmar plantar erythrodysesthesia Syndrome (PPE) Grade 1, GEN1046-related",GEN1046 + 75 mg/m^2 Docetaxel,1
same,"Palmar plantar erythrodysesthesia Syndrome (PPE) Grade 2, GEN1046-related",GEN1046 + 75 mg/m^2 Docetaxel,0
same,"Palmar plantar erythrodysesthesia Syndrome (PPE) Grade 3, GEN1046-related",GEN1046 + 75 mg/m^2 Docetaxel,0
same,"Palmar plantar erythrodysesthesia Syndrome (PPE) Grade 4, GEN1046-related",GEN1046 + 75 mg/m^2 Docetaxel,0
same,"Palmar plantar erythrodysesthesia Syndrome (PPE) Grade 5, GEN1046-related",GEN1046 + 75 mg/m^2 Docetaxel,0
same,"Pruritus Grade 1, GEN1046-related",GEN1046 + 75 mg/m^2 Docetaxel,1
same,"Pruritus Grade 2, GEN1046-related",GEN1046 + 75 mg/m^2 Docetaxel,0
same,"Pruritus Grade 3, GEN1046-related",GEN1046 + 75 mg/m^2 Docetaxel,0
same,"Pruritus Grade 4, GEN1046-related",GEN1046 + 75 mg/m^2 Docetaxel,0
same,"Pruritus Grade 5, GEN1046-related",GEN1046 + 75 mg/m^2 Docetaxel,0
same,"Total treated subjects with related TEAEs Grade 1, GEN1046-related",GEN1046 + 75 mg/m^2 Docetaxel,4
same,"Total treated subjects with related TEAEs Grade 2, GEN1046-related",GEN1046 + 75 mg/m^2 Docetaxel,4
same,"Total treated subjects with related TEAEs Grade 3, GEN1046-related",GEN1046 + 75 mg/m^2 Docetaxel,2
same,"Total treated subjects with related TEAEs Grade 4, GEN1046-related",GEN1046 + 75 mg/m^2 Docetaxel,1
same,"Total treated subjects with related TEAEs Grade 5, GEN1046-related",GEN1046 + 75 mg/m^2 Docetaxel,0
same,"Vomiting Grade 1, GEN1046-related",GEN1046 + 75 mg/m^2 Docetaxel,1
same,"Vomiting Grade 2, GEN1046-related",GEN1046 + 75 mg/m^2 Docetaxel,0
same,"Vomiting Grade 3, GEN1046-related",GEN1046 + 75 mg/m^2 Docetaxel,0
same,"Vomiting Grade 4, GEN1046-related",GEN1046 + 75 mg/m^2 Docetaxel,0
same,"Vomiting Grade 5, GEN1046-related",GEN1046 + 75 mg/m^2 Docetaxel,0
same,Hepatotoxicity,[1],No reported drug-related hepatoxicities
same,Immune-related toxicities,[1],None reported
same,Serious adverse events related to GEN1046,"dose limiting toxicity period, in combination with Docetaxel",No serious adverse events
same,Dose Limiting Toxicity,with Docetaxel 55 mg/m^2 or 75 mg/m^2,No Dose Limiting Toxicity reported
